What was measured:
[1] = target: pep11** fused to the GAL4 DNA binding domain; assay: mammalian two-hybrid; conditions: HeLa cells; read off a plot
[2] = target: E6APpep fused to the GAL4 DNA binding domain; assay: mammalian two-hybrid; conditions: HeLa cells; read off a plot

Q: What does the source list for “wildtype HPV16 E6 fused to the VP16 transcriptional activation domain (from UniProt P03126) N105A”?
A: percent of parent [1]: 110%; percent of parent [2]: 80%

Q: How did the percent of parent [1] turn out when “wildtype HPV16 E6 fused to the VP16 transcriptional activation domain (from UniProt P03126) V62A” was run?
A: 61%

Q: And the percent of parent [2]?
A: 63%

Q: Which percent of parent [1] does the source give for “wildtype HPV16 E6 fused to the VP16 transcriptional activation domain (from UniProt P03126) R40A” here?
A: 120%

Q: And the percent of parent [2]?
A: 110%

Q: For “wildtype HPV16 E6 fused to the VP16 transcriptional activation domain (from UniProt P03126) S74R”, which percent of parent [1] is on record?
A: 64%

Q: And the percent of parent [2]?
A: 70%

Q: Which percent of parent [1] does the source give for “wildtype HPV16 E6 fused to the VP16 transcriptional activation domain (from UniProt P03126) K122A” here?
A: 170%

Q: What about the percent of parent [2] of the same substance?
A: 110%

Q: “wildtype HPV16 E6 fused to the VP16 transcriptional activation domain (from UniProt P03126) K121A” was tested. Which percent of parent [1] did it give?
A: 170%

Q: What about the percent of parent [2] of the same substance?
A: 120%

Q: What does the source list for “wildtype HPV16 E6 fused to the VP16 transcriptional activation domain (from UniProt P03126) L50E”?
A: percent of parent [1]: 5%; percent of parent [2]: 42%

Q: Which percent of parent [1] does the source give for “wildtype HPV16 E6 fused to the VP16 transcriptional activation domain (from UniProt P03126) I23Q” here?
A: 70%

Q: What about the percent of parent [2] of the same substance?
A: 66%

Q: Which percent of parent [1] does the source give for “wildtype HPV16 E6 fused to the VP16 transcriptional activation domain (from UniProt P03126) D44R” here?
A: 45%

Q: What about the percent of parent [2] of the same substance?
A: 67%

Q: What does the source list for “wildtype HPV16 E6 fused to the VP16 transcriptional activation domain (from UniProt P03126) I128A”?
A: percent of parent [1]: 17%; percent of parent [2]: 52%

Q: Which percent of parent [1] does the source give for “wildtype HPV16 E6 fused to the VP16 transcriptional activation domain (from UniProt P03126) H24R” here?
A: 57%

Q: What about the percent of parent [2] of the same substance?
A: 79%

Q: What does the source list for “wildtype HPV16 E6 fused to the VP16 transcriptional activation domain (from UniProt P03126) K108A”?
A: percent of parent [1]: 140%; percent of parent [2]: 93%

Q: What does the source list for “wildtype HPV16 E6 fused to the VP16 transcriptional activation domain (from UniProt P03126) R129E”?
A: percent of parent [1]: 120%; percent of parent [2]: 110%

Q: Which results are given for “wildtype HPV16 E6 fused to the VP16 transcriptional activation domain (from UniProt P03126) Q35R”?
A: percent of parent [1]: 100%; percent of parent [2]: 120%

Q: How did the percent of parent [1] turn out when “wildtype HPV16 E6 fused to the VP16 transcriptional activation domain (from UniProt P03126) Q107A” was run?
A: 100%

Q: What about the percent of parent [2] of the same substance?
A: 79%

Q: Which percent of parent [1] does the source give for “wildtype HPV16 E6 fused to the VP16 transcriptional activation domain (from UniProt P03126) R129A” here?
A: 190%

Q: And the percent of parent [2]?
A: 290%

Q: How did the percent of parent [1] turn out when “wildtype HPV16 E6 fused to the VP16 transcriptional activation domain (from UniProt P03126) K34E” was run?
A: 120%

Q: And the percent of parent [2]?
A: 74%

Q: With “wildtype HPV16 E6 fused to the VP16 transcriptional activation domain (from UniProt P03126) C140E” as the substance, how does the percent of parent [1] read?
A: 150%

Q: What about the percent of parent [2] of the same substance?
A: 140%

Q: What does the source list for “wildtype HPV16 E6 fused to the VP16 transcriptional activation domain (from UniProt P03126) C51F”?
A: percent of parent [1]: 110%; percent of parent [2]: 110%

Q: With “wildtype HPV16 E6 fused to the VP16 transcriptional activation domain (from UniProt P03126) L67A” as the substance, how does the percent of parent [1] read?
A: 46%

Q: And the percent of parent [2]?
A: 48%

— paper PMC4226571, “The E6AP Binding Pocket of the HPV16 E6 Oncoprotein Provides a Docking Site for a Small Inhibitory Peptide Unrelated to E6AP, Indicating Druggability of E6” (PLoS ONE, 2014)
